Target: TRPV1 disordered region polypeptide (UniProt Q8NER1)
Test: modified sandwich ELISA, fluorescence grade (key: 50000 < x < 100000, Weak binding)

fluorescent signal (fluorescentsignal): 50000 to 100000
B1: S068 (designed binder)
chain: GDTRPRFLWQLKFECHFFNGTERVRLLERCIYNQEESVRFDSDVGEYRAVTELGRPDAEYWNSQKDLLEQRRAAVDTYCRHNYGVGESFTVQRRVEPKVTVYPSKTQPLQHHNLLVCSVSGFYPGSIEVRWFRNGQEEKAGVVSTGLIQNGDWTFQTLVMLETVPRSGEVYTCQVEHPSVTSPLTVEWRASGGGGSGGGGSGGGGIKEEHVIIQAEFYLNPDQSGEFMFDFDGDEIFHVDMAKKETVWRLEEFGRFASFEAQGALANIAVDKANLEIMTKRSNYTPITNVPPEVTVLTNSPVELREPNVLICFIDKFTPPVVNVTWLRNGKPVTTGVSETVFLPREDHLFRKFHYLPFLPSTEDVYDCRVEHWGLDEPLLKHWEFDAPSGGSHHHHHHLE

Reference: patent publication US20260102461A1
